Laboratory results published in patent US20050084489A1, “Methods of preventing or treating disorders by administering and integrin alphanubeta3 antagonist in combination with an HMG-CoA reductase inhibitor or a bisphosphonate” (priority 2002, published 2005).
Residue numbers refer to the chain shown, from its start.

Assays:
[1] = biological target: T1, modified mouse integrin αVβ3 (mouse-human chimera, human β chain residues 164-202) (Mus musculus, UniProt O54890, A208T/I198L/K199E/N204D/N207T/Q196E/S226T); assay: Antibody binding to modified mouse integrin αVβ3 carrying amino acids 164-202 of the human β chain; details: mouse β chain region replaced with amino acids 164-202 of the human β chain
T1 sequence (O54890 26-787 Q196E/I198L/K199E/N204D/N207T/A208T/S226T): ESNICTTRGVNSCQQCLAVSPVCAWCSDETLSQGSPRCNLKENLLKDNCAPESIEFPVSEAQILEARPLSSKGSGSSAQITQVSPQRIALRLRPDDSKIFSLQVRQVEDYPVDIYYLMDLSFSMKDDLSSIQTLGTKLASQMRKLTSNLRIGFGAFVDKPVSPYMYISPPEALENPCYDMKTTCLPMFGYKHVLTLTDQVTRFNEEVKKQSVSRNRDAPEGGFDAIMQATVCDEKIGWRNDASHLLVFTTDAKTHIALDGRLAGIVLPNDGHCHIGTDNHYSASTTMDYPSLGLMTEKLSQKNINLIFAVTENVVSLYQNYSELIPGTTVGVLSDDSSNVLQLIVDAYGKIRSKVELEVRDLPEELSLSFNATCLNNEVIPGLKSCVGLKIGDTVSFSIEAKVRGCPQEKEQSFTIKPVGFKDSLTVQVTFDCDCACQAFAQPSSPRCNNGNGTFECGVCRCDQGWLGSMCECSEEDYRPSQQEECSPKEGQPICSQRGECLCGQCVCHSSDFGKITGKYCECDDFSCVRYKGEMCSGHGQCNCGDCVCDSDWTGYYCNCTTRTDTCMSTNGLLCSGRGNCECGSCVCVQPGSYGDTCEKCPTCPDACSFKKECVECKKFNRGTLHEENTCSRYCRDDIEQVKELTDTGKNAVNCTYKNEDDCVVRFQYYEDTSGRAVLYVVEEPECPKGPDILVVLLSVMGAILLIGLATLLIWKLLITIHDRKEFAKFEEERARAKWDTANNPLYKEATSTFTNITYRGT
T1 sequence (P43406 31-885 partner): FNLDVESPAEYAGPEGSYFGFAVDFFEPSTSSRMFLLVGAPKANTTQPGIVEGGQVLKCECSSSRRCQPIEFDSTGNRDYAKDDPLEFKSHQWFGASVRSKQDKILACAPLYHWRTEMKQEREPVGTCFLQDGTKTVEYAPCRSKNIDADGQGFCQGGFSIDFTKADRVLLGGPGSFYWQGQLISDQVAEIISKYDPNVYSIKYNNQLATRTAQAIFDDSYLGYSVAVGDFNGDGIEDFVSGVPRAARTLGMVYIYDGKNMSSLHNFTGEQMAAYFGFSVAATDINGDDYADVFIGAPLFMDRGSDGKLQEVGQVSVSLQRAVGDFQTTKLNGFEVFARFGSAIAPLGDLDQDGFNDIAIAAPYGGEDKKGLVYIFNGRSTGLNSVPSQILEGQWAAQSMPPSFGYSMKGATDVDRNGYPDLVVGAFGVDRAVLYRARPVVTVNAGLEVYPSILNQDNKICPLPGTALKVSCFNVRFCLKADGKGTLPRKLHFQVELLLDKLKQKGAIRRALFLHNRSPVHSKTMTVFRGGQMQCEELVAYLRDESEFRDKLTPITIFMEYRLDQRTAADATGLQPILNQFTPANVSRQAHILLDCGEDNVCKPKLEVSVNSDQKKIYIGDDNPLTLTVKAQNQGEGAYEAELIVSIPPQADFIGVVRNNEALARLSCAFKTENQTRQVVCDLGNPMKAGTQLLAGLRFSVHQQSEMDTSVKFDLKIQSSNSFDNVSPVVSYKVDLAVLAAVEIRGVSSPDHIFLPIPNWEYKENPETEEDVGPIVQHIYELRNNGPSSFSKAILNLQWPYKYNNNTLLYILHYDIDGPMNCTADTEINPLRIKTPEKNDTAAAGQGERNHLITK
T1 sequence (P43406 887-1044 partner): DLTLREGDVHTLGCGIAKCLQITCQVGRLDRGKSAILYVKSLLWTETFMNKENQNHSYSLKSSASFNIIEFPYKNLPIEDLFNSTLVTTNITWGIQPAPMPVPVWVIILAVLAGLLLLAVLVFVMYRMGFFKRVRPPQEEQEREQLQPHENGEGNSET
Description: (§1) The invention encompasses methods for identifying antagonists that are immunospecific for integrin αVβ3, particularly for antibodies that specifically bind to the same epitope as VITAXIN® and/or LM609. […] In certain embodiments, amino acid substitutions are made in the subunits of integrin αVβ3, for example to change the ligand specificity of the integrin αVβ3 and/or disrupt the heterodimerization of the subunit chains. Preferably the integrin αVβ3 is human. In specific embodiments, such amino acid substitutions disrupt the specific interaction of certain antagonists of integrin αVβ3 with a particular integrin αVβ3 epitope. In a preferred embodiment, the amino acid substitutions are made within regions of an integrin subunit that confers ligand binding specificity, preferably ligand binding specificity of LM609 and/or VITAXIN®, particularly residues 164-202 of human β3. Alternatively, mouse β chain residues corresponding to residues 164-202 of the human β3 chain are replaced with the residues 164-202 of the human β3 chain. Such mouse-human chimeras can be used to screen for antagonists that bind to the region 164-202 of human β3 but not to mouse integrin αVβ3.
(§2) In addition, the invention provides methods for identifying monoclonal antibodies that bind to the heterodimerized αVβ3 but not the αV or the β3 chains when not included in a heterodimer. […]

[2] = test system: integrin αVβ3 with mutated human β3 chain; assay: Antibody binding to integrin αVβ3 heterodimer with human β3 residues substituted with rat residues
Description: as §1
In preferred embodiments, the amino acid substitutions are made in the β3 subunit. In certain embodiments, human β3 residues are substituted with rat residues as described in Table 2. […] Such substitutions preferred examples but not limiting. Such substituted subunits are merely exemplary and not limiting. Any integrin αVβ3 regions identified to be responsible for antibody binding can be altered with substituted, deleted or inserted residues to characterize binding specificity of various antibodies and to screen for antibodies with the same a similar binding specificity.
In addition, the invention provides methods for identifying monoclonal antibodies that bind to the heterodimerized αVβ3 but not the αV or the β3 chains when not included in a heterodimer. […] The antibodies identified from such screening methods can be useful for the prevention, management and treatment of integrin αVβ3-mediated diseases and disorders, including but not limited to inflammatory diseases, autoimmune disorders, disorders associated with aberrant expression and/or activity of integrin αvβ3, disorders associated with abnormal bone metabolism, disorders associated with aberrant angiogenesis and cancers, or a condition or symptom associated therewith. It is also contemplated that such antibodies can be used in the methods and compositions contemplated by the present invention. […]

[3] = biological target: T2, mouse integrin αVβ3 (Mus musculus, UniProt O54890); assay: Antibody binding to wild type mouse integrin αVβ3
T2 sequence (O54890 26-787): T1 sequence (O54890 26-787 Q196E/I198L/K199E/N204D/N207T/A208T/S226T) with E171Q, L173I, E174K, D179N, T182N, T183A, T201S
T2 sequence (P43406 31-885 partner limits assumed): T1 sequence (P43406 31-885 partner)
T2 sequence (P43406 887-1044 partner limits assumed): T1 sequence (P43406 887-1044 partner)
Description: as §1, §2

binding to modified mouse integrin αVβ3 [1]: do bind | effect of β3 mutation on antibody binding to integrin αVβ3 ([2]; Mutation A: Glu to Gln at position 171 (E171Q)): disrupts binding | effect of β3 mutation on antibody binding to integrin αVβ3 ([2]; Mutation B: Leu and Glu to Ile and Lys at positions 173 and 174 (L173I, E174K)): disrupt binding | effect of β3 mutation on antibody binding to integrin αVβ3 ([2]; Mutations A and C combined (three substituted residues)): disrupts binding | effect of β3 mutation on antibody binding to the integrin αVβ3 heterodimer ([2]; mutation of residues 171, 173 and/or 174 of the human β3 chain): disrupt binding | binding to mouse integrin αVβ3 [3]: do not bind
B1: VITAXIN®: humanized monoclonal antibody MEDI-522 (MedImmune) that immunospecifically binds to integrin αVβ3; human IgG1 subclass (antibody, chains of the INN, looked up, V domains shown)
VH: QVQLVESGGGVVQPGRSLRLSCAASGFTFSSYDMSWVRQAPGKGLEWVAKVSSGGGSTYYLDTVQGRFTISRDNSKNTLYLQMNSLRAEDTAVYYCARHLHGSFASWGQGTTVTVSS
VL: EIVLTQSPATLSLSPGERATLSCQASQSISNFLHWYQQRPGQAPRLLIRYRSQSISGIPARFSGSGSGTDFTLTISSLEPEDFAVYYCQQSGSWPLTFGGGTKVEIK
